Where no end group is shown, it is not given here. Me2 = dimethyl on Lys side chain (K(me2))
B1: Clone A (RW24), recombinant rabbit anti-H1.0K180me2 monoclonal IgG antibody (antibody, V domains shown)
VH: QSVEESGGRLVTPGTPLTLTCTVSGFSLNNYVMMWVRQAPGEGLEWIAAITTGGTTYYANWAKGRFTISKTSTTVDLKIISPTTEDTATYFCARDLYGDTSDDIWDAFDPWGPGTLVTVSS
VL: DPVLTQTPSSVSAAVGGTVTISCQSSESVYKNNNLAWYQQKPGQPPKLLIYSASTLASGVPSRFKGSGSGTQFTLTISGVQCDDAATYYCLGVYSDIFAF
notes: Tested as a full-length recombinant rabbit monoclonal IgG

What was measured:
[1] = tested on: recombinant human H1.0 protein, full length, unmethylated
H1.0K180me2 peptide = biological target: T1, H1.0K180me2 peptide (human); assay: ELISA on coated peptides, compared at the antibody concentration that gives the threshold O.D. 1.5
T1 construct: also called H1.0Kme2 peptide
T1 peptide: CAKPVKASKPKKAKPVK(Me2)PK
Protocol: The specificity of the recombinant rabbit anti-H1.0K180me2 monoclonal IgG antibody clones for H1.0K180me2 peptide was determined using ELISA in FIG. 2A. Wells were coated with H1.0K180me2 peptide; 50 ul of peptide solution (5 ug/ml) was used to coat each well. 100 ul of each clone antibody was added to wells in a 2× dilution series. Curves for each peptide were generated by plotting antibody concentration against measured O.D at 450 nm. In order to directly compare the binding efficiencies of the different clones, a threshold cut-off was selected that intersected the linear range of each of the clone titration curves (horizontal dashed line at O.D. 1.5). Clone A (RW24) has the highest binding affinity for H1.0K180me2 peptide.
The non-specific binding of the antibody clones to unmodified H1.0 peptide was also determined by ELISA as above in FIG. 2B. Clones D (RW28) and E (RW36) both bound to unmodified H1.0 peptide with high affinity. At the threshold concentration calculated above, Clone A (RW24) was 20× more efficient at binding H1.0K180me2 peptide than unmodified H1.0 peptide, Clone B (RW6): 23×, Clone C (RW37): 22×, Clone D (RW28): 2×, Clone E (RW36): 5×.

Molecule | in vitro methylation reaction analysed by LC-MS [1] | fold more efficient at binding H1.0K180me2 peptide than unmodified H1.0 peptide (H1.0K180me2 peptide) [×]
recombinant G9A (methyltransferase) | G9A specifically methylates several C-terminal lysine residues, including H1.0K180me2 | 
B1 |  | 20
